{"source": "FireProtDB (doi:10.1016/0014-5793(94)01308-n)", "conditions": "Sus scrofa, Thermal, DSC, Sodium phosphate 5 mM, reversible: yes, whole UniProt chain shown", "note": "Values joined by “and” are separate entries in the source; they are usually repeats but may differ in a detail not shown here. Equal entries are not always repeated."}
{"protein": "Gastricsin wild type, P30879 (protein) SVIKVPLKKLKSIRQAMKEKGLLEEFLKTHKYDPAQRYRIGDISVALEPMAYLEAAYFGEISIGTPPQNFLVL", "values": [{"measurement": "Tm", "setting": "pH 6", "value": 66.2, "unit": "°C"}, {"measurement": "unfolding enthalpy (calorimetric)", "setting": "pH 6", "value": 254, "unit": "kcal/mol"}, {"measurement": "unfolding enthalpy (calorimetric)", "setting": "pH 6.4", "value": "248 kcal/mol and 269 kcal/mol"}, {"measurement": "Tm", "setting": "pH 6.8", "value": 47.2, "unit": "°C"}, {"measurement": "unfolding enthalpy (calorimetric)", "setting": "pH 6.8", "value": 221, "unit": "kcal/mol"}, {"measurement": "Tm", "setting": "pH 7.2", "value": 56.1, "unit": "°C"}, {"measurement": "unfolding enthalpy (calorimetric)", "setting": "pH 7.2", "value": 195, "unit": "kcal/mol"}, {"measurement": "Tm", "setting": "pH 7.3", "value": 39.8, "unit": "°C"}, {"measurement": "unfolding enthalpy (calorimetric)", "setting": "pH 7.3", "value": 192, "unit": "kcal/mol"}, {"measurement": "Tm", "setting": "pH 7.7", "value": 55, "unit": "°C"}, {"measurement": "unfolding enthalpy (calorimetric)", "setting": "pH 7.7", "value": 173, "unit": "kcal/mol"}, {"measurement": "Tm", "setting": "pH 8", "value": 51.1, "unit": "°C"}, {"measurement": "unfolding enthalpy (calorimetric)", "setting": "pH 8", "value": 182, "unit": "kcal/mol"}, {"measurement": "Tm", "setting": "pH 8.2", "value": 33.8, "unit": "°C"}, {"measurement": "unfolding enthalpy (calorimetric)", "setting": "pH 8.2", "value": 170, "unit": "kcal/mol"}]}
